To fix the notation:
B1: LK-RB1-46 (antibody, human IgG4 S228P, kappa, V domains shown)
VH: EVQLQQSGPELVKPGASVKISCKTSGYTFTDYYMNWVKQSHGKSLEWIGDIYPINGDISYNQKFKGKATLTVDKSSSTVYMEIRSLTYEDSAVYYCARLAQTTSGGFDYWGQGTTLTVSS
VL: DIVLTQSPTSLAVSLGQRAIISCKASQSVSFAGTSLMHWYQQKPGQQPKLLIYRASNLKAGVPTRFSGSGSRTDFTLNIHPVEEDDAATYYCQQSREYPMYTFGGGTKLEIKR
B2: LK-RB1-35 (antibody, human IgG4 S228P, kappa, V domains shown)
VH: DVQLQESGPGLEKPSQSLSLTCSVTGYSITRGYQWNWIRQFPGNKLEWMGYISYDGSNNYNPSLKNRISITRDASKNQFFLKLNSVTTEDTATYYCARRSYNSIDYWGQGTTLTVSS
VL: DIVLTQSPATLSVTPGDSVSLSCRASQSISSNLHWYQQKSHESPRLLIKYASQSISGIPSRFSGSGSGTDFTLSINSVETEDFGMYFCQQSNSWPLTFGAGTKLELKR
B3: LK-RB1-36 (antibody, human IgG4 S228P, kappa, V domains shown)
VH: DVQLQESGPGLEKPSQSLSLTCSVTGYSITRGYQWNWIRQFPGNKLEWMGYISYDGSNNYNPSLKNRISIIRDTSKNQFFLKLNSVTTEDTATYYCARRSYNSIDYWGQGTTLTVSS
VL: DIVLTQSPATLSVTPGDSVSLSCRASQSISNNLHWYQQKSHESPRLLIKYASQSISGIPSRFSGSGSGTDFTLSINSVETEDFGMYFCQQSNSWPLTFGAGTKLELKR
B4: LK-RB1-29 (antibody, human IgG4 S228P, kappa, V domains shown)
VH: QVQLKESGPGLVAPSQNLAITCTVSGFSLTNSGVSWVRQSPGKGLEWLGIIWGDGNTNYHSALISRLSISKDNSKSQVFLKLNSLQTDDTGTYYCAKPNWDYYALDYWGQGTSVTVSS
VL: DIQMTQTASSLFASLGDRVTISCRASQDISNYLNWYQQKPDGSIKLLISYTSRLHSGVPSRFSGSGSGTDYSLSISNLEQEDIATYFCQQGISLPCTFGGGTKLEVNR
B5: LK-RB1-30 (antibody, human IgG4 S228P, kappa, V domains shown)
VH: QVQLKESGPGLVAPSQSLSITCTVSGFSLTSYGVSWIRQPPGKGLEWLGVIWGDGNTNYHSALISRLSISKDNSKSQVFLKLNSLQTDDTATYYCAKPSWDYYAMDYWGQGTSVTVSS
VL: VIQMTQTTSSLSASLGDRVTISCRASQDISNYVNWYQQRPDGTVKLLISYTSRLHSGVPSRFSGSGSGTDYSLTITNLEQEDIATYFCQQGITLPCTFGGGTKLEINR
B6: LK-RB1-42 (antibody, human IgG4 S228P, kappa, V domains shown)
VH: QVQLQQPGAELVKPGTSVKLSCKASGYSFISYWVYWVKQRPGQGLEWIGMIHPNSGSTNFNEKFRYKATLTVDKSSSTAYIQLSSLTSEDSAVYYCGRSDDGYPYHAMDSWGQGTSVTVSS
VL: DIVMTQSQKFMSTSVGDRVSVTCKASQNVGTNVAWYQQKPGQSPKALIYSASYRFSGVPDRFTGSGSGTDFTLTIGNVQSEDLAEYFCHQYKNYPLTFGGGTKLEIKR
B7: LK-RB1-32 (antibody, human IgG4 S228P, kappa, V domains shown)
VH: QVQLQQSGAELAKPGASVKLSCTASGYTFTTYLMHWVKQRPAQGLEWIGYINPSNDFTKYNQKFKDKATLTADTSSSTAYMQLNSLTFEDSAVYYCARNSDYDPSYWGQGTTLTVSS
VL: DIQMTQSPASLSVSVGETVTITCRASENIYSSLAWYQQKQGKSPQLLVYAATNLADGVPSRFSGSGSGTQYSLKINSLQSEDFGNYYCQHFWGTWAFGGGTKLEIKR
B8: LK-RB1-44 (antibody, human IgG4 S228P, kappa, V domains shown)
VH: QVQLQQSGTELAKPGASVKLSCKASGYTFTNYWMHWIKQRPGQGLEWIGYVHPTSDYTKYNQKFKDKATLTADKSSSTAYMQLNSLTYEDSAVYYCTRSSLYDTNYVFDSWGQGTTLTVSS
VL: DILLTQSPAILSVSPGERVSFSCRASQSIGRSIHWFQQRTNGSPSLLIKYASESISGIPSRFSGGGSGTDFTLSISNVESEDIADYYCQQSNNWPFTFGSGTKLEIKR
B9: LK-RB1-45 (antibody, human IgG4 S228P, kappa, V domains shown)
VH: QVQLQQSGTELARPGASVKLSCKASGYTFTNFWMHWIKQRPGQGLEWIGYVNPTSDYTKYNQKFKDKATLTADKSSSTAYMQLNSLTYEDSAVYYCTRSSLYDTNYVFDSWGQGTTLTVSS
VL: DILLTQSPAILSVSPGERVSFSCRASQSIGRSIHWYQQRTNGSPRLLIKYASESISGIPSRFSGGGSGTDFTLSISNVESEDIADYYCQQSNNWPFTFGSGTKLEIKR
B10: LK-RB1-43 (antibody, human IgG4 S228P, kappa, V domains shown)
VH: EFQLQQSGPELMKPGASVKISCKASGYSFTDYNMNWVKQSNGKSLEWIGIIDPNYGTTTYNQKFKGRATLTVDQSSNTAYMQLNSLTSEDSAVYYCAREGRYSWFAYWGQGTLVTVSA
VL: DIQMTQSPGALSVSVGETVTITCRASENINSNLAWYQQKQGKSPQLLVYAATNLADGVPSRFSGSGSGTQYSLKINSLQSEDFGSYHCQHFWGTPFTFGSGTKLEIKR
B11: 12D12 (antibody, human IgG4 S228P, kappa, V domains shown)
VH: QVQLQQPGAELVKPGASVRMSCKASGYTFTSYWVHWVKQRPGQGLEWIGVIDPSDSYTSYNQNFKGKATLTVDTSSKTAYIHLSSLTSEDSAVYFCARGERYDGDYFAMDYWGQGTSVTVSS
VL: DIVMTQSPASLSVSVGETVTITCRASENIYSNLAWYQQKQGKSPQLLVYAATNLADGVPSRFSGSRSGTQYSLKINSLQSEDFGTYYCQHFWNTPRTFGGGTKLEIKR
B12: LK-RB1-38 (antibody, human IgG4 S228P, kappa, V domains shown)
VH: DVQLQESGPGLVQPSQSLSLTCSVTGYSITSGYQWNWIRQLPGNKLEWMAYISFDGSNNYNPSLKNRISITRDTSKNQFFLKLKSVTTEDTATYYCARRDYDGVAYWGQGTLVTVSA
VL: EIVLTQSPATLSVTPGDRVSLSCRASQNISNYLHWYQQKSHGSPRLIIKYASQSISGIPSRFSGSGSGTDFTLSINSVETEDFGMYFCQQSNSWPLTFGAGTKLELKR
B13: LK-RB1-34 (antibody, human IgG4 S228P, kappa, V domains shown)
VH: QVQLQQSGAELVKPGASVKLSCKASGYTFTEYTIHWVKQRSGQGLEWIGWFYPGSDSIKYNEKFKDKATLTADKSSSTVYMELSRLTSEDSAVYFCSRHEGPYFTSQYYFDYWGQGTTLTVSS
VL: DILLTQSPAILSVSPGERVSFSCRASRYIGTSIHWYQQRTNGSPRLLIKYASESISGIPSRFSGSGSGTDFTLSINSVESEDIADYYCQQSNTWPLTFGAGTKLELKR
B14: LK-RB1-37 (antibody, human IgG4 S228P, kappa, V domains shown)
VH: QVQLQQPGAELVKPGASVKLSCKASGYTFTSYWMHWVKQRPGRGPEWIGRIDPNSGYARYNEKFKNKATLTADKPSSTADMHLSSLTSEDSAVYYCTRSFITTAEWFFDVWGTGTTVTVSS
VL: DILLTQSPAILSVSPGERVSFSCRASQSIGTSIHWYQQRRNGSPRLLIKYTSESISGIPSRFSGSGSGTDFTLSINSVESEDIADYYCQQSNSWPHTFGGGTKLELKR
B15: LK-RB1-55 (antibody, human IgG4 S228P, kappa, V domains shown)
VH: EVKLVESGGGLVQPGGSLKLSCAASGFTFSDYYMYWVRQTPEKRLEWVAYISNGGDITFYPDTVKGRFTISRDNARSTLYLQMSRLKSEDTAIYYCASATTEVGAMDHWGQGTSVTVSS
VL: DIVMTQSQKFMSTTVGDRVSITCKASQNVGTAVAWYQQKPGKSPKLLIYAASNRYTGVPDRFTGSGSGTDFTLTISNMQSEDLADYFCQQYSSYRTFGGGTNLEIKR
B16: LK-RB1-48 (antibody, human IgG4 S228P, kappa, V domains shown)
VH: EVKLVESGGGLVQPGGSLKLSCAASGFTFSDYYMYWVRQTPEKRLEWVAYISNGGGISFYPDTVKGRFTISRDNAKNTLYLQMSRLKSEDTAIYYCASATKEVGAMDYWGQGTSVTVSS
VL: DIVMTQSQKFLSTTVGDRVSITCKASQNVGTAVAWYQQKPGQSPKILIYSASNRYTGVPDRFTGSGSGTDFTLTISNMQSEDLADYFCQQYSSYRTFGGGTKLEIKR
B17: LK-RB1-57 (antibody, human IgG4 S228P, kappa, V domains shown)
VH: EVKLVESGGGLVQPGGSLKLSCAASGFTFSDYYMYWVRQTPEKRLEWVAYISNGGDITFYPDTVKGRFTISRDNARSTLYLQTSRLKSEDTAIYYCASATTEVGAMDHWGQGTSVTVSS
VL: DIVMTQSQKFMSTTVGDRVSITCKASQNVGTAVAWYQQKPGKSPKLLIYAASNRYTGVPDRFTGSGSGTDFTLTISNVQSEDLADYFCQQYSSYRTFGGGTSLEIKR
B18: LK-RB2-32 (antibody, human IgG4 S228P, kappa, V domains shown)
VH: DVQLQESGPGLVKPSQSLSLTCSVTGYSITSGYYWNWIRQFPGNKLEWMGYISFDGSNHYNPSLRNRISITRDTFKNQFFLKLNSVTTEDTATFYCTRRDYNWFAYWGQGTLVTVSA
VL: DIVLTQSPVTLSVTPGDSVSLSCRASQNINKNLHWYQQRSHESPRLLIKYVSQSISGIPSRFSGSGSGTDFTLSINSVETEDFGMYFCQQSNSWPLTFGAGTKLELRR
B19: LK-RB2-6 (antibody, human IgG4 S228P, kappa, V domains shown)
VH: QIQLVQSGPELKKPGETVKISCKASGYTFTTYGMSWVKQAPGKGLEWMGWINIYSGVPTYADDFKGRFAFSLETSASTAYLQINNLKNEDTATYFCARRGDYDSFYFDYWGQGTTLTVSS
VL: DIVMSQSPSSLAVSVGEKVTVSCKSSQSLLYSYNQKNYLAWYQQKPGQSPKLLIYWSSTRESGVPDRFTGSGSGTDFTLTISSVKAEDLAVYYCQQCYNYPYTFGGGTKLEIKR
B20: LK-RB2-7 (antibody, human IgG4 S228P, kappa, V domains shown)
VH: DVKLVESGEGLVKPGGSLKLSCAASGFTFSSYAMSWVRQTPEMRLEWVAYISSGGDHFYYADTVKGRFTISRDNARSTLYLQMSSLKSEDTAMYYCTREGASYDSNFLAWFAYWGQGTLVTVSA
VL: DIQMTQSPASLSVSVGETVTITCRASENIYSNLAWYQQKEGKSPQLLVYGATNLADGVPSRFSGSGSGTQYSLKINSLQSEDFGSYYCQNFWDIPLTFGAGTKLELKR

The target of one assay is T1, human LILRB1 (human, UniProt Q8NHL6 24-458, limits assumed).
T1 construct: also called hLILRB1
T1 sequence (Q8NHL6 24-458 limits assumed): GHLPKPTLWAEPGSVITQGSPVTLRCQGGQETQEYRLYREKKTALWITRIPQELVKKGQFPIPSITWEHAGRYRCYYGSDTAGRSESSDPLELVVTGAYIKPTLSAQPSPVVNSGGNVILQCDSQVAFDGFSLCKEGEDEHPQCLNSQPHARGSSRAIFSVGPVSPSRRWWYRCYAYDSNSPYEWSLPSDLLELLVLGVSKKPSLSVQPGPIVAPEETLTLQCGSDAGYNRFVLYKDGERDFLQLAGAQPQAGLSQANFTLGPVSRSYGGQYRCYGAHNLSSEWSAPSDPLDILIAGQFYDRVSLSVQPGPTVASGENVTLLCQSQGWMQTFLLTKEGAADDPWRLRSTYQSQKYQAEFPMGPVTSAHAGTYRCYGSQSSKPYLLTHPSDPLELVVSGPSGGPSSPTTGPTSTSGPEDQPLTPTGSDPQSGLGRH
In words: Octet off-rate ranking.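 Further: antibody dissociation rate constants against cynomolgus LILRB2 plus human LILRB1, LILRB2, LILRA1 and LILRA2, measured on an Octet instrument to rank binding.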
Excerpt: Binding affinity of anti-LILRB1 and anti-LILRB2 antibodies against human LILRB1, LILRB2, LILRA1, LILRA2 and cynomolgus LILRB2 was ranked by measuring dissociation rate constant (Kdis) using the Octet system.
Usually koff stands for the rate constant with which the complex falls apart. Higher therefore signals a short-lived complex. Turning to B1, the koff was found to be 0.000739 s⁻¹.
Same read-out and setting: next, B2: 0.00116 s⁻¹; B3: 0.00121 s⁻¹.
As for B4, the koff turned out to be 8.11e-05 s⁻¹.
B5: the koff worked out at 6.05e-05 s⁻¹.
In the case of B6, the koff was 0.000139 s⁻¹.
B7 returned a koff of 3.66e-05 s⁻¹.
Turning to B8, the koff was 0.000559 s⁻¹.
With B9, the koff is 0.000611 s⁻¹.
B10: the koff was found to be 0.000364 s⁻¹.
The same measure, in the same setting: with B11 the figure was 0.000338 s⁻¹; with B12, 0.000532 s⁻¹.
Take B13: the koff stood at 0.000222 s⁻¹.
Take B14: the koff was 3.91e-05 s⁻¹.
B15 came in with a koff below 1e-07 s⁻¹.
On to B16, for which the dissociation rate constant (koff) is 8.47e-06 s⁻¹.
On the same count and under the same terms, with B17 the figure was below 1e-07 s⁻¹.

Another assay deals with T2, human LILRB1 expressed on CHOK1 cells (CHOK1-hLILRB1) (human, UniProt Q8NHL6 24-650).
T2 construct: whole, on cells; also called CHOK1-LILRB1
T2 sequence (Q8NHL6 24-650): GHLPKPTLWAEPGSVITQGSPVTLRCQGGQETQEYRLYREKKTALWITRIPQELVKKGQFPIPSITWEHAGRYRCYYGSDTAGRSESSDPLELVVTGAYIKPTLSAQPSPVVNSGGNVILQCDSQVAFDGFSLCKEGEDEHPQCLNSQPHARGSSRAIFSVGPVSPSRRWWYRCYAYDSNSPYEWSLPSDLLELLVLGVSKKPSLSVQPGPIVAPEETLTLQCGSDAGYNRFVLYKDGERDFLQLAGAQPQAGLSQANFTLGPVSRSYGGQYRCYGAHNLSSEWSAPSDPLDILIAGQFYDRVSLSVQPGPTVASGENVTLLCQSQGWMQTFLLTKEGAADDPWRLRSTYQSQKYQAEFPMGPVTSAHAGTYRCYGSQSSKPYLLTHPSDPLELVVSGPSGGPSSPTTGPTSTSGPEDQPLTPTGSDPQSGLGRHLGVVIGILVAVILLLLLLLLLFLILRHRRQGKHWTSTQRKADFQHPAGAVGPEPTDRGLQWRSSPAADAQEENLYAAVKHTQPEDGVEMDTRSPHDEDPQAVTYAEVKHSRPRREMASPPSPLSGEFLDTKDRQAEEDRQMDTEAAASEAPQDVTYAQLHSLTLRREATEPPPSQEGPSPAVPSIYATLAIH
In words: FACS binding to CHOK1-hLILRB1 cells. A general note: Flow cytometry measures light scatter and fluorescence of single cells or particles in a stream.
Broadly, the EC50 is the midpoint of the concentration-response curve. Molecule B18 returned an EC50 of 4.54 nM.
As to B19, the binding result is “no binding”.
Regarding B20, the binding result was “no binding”.

The target in another assay is T3, human LILRB2 expressed on CHOK1 cells (CHOK1-hLILRB2) (human, UniProt Q8N423 22-597).
T3 construct: whole, on cells; also called CHOK1-LILRB2
T3 sequence (Q8N423 22-597): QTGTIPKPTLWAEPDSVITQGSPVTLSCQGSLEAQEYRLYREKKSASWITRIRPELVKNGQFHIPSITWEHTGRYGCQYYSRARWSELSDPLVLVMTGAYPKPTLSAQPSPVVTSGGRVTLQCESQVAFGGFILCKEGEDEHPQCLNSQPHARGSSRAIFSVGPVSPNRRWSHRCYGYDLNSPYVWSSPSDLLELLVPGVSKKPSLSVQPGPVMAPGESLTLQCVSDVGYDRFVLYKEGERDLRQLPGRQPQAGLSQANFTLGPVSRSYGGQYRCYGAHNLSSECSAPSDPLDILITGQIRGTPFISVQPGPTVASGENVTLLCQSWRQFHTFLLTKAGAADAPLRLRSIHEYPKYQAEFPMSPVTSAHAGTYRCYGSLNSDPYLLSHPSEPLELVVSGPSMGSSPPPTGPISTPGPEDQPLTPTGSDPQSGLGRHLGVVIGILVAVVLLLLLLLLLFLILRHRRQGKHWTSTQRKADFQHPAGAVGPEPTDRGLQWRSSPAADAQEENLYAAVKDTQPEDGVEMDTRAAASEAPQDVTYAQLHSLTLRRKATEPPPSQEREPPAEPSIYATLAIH
In words: FACS binding to CHOK1-hLILRB2 cells.
Consider B19, for which the concentration for a half-maximal effect (EC50) was determined as 0.66 nM.
Molecule B20 yielded an EC50 of 0.25 nM.

The values above are taken from patent US20260234247A1 (published 2026).
